Read-outs that look alike come from different tables or passages of the source.
Experiments:
[1] = target: T1, SUD-M (SARS-CoV, UniProt P0C6U8 1345-1469); test: NMR chemical shift perturbation
[2] = target: T2, SUD-MC (SARS-CoV, UniProt P0C6U8 1345-1538); test: NMR chemical shift perturbation
[3] = target: T3, SUD-C (SARS-CoV, UniProt P0C6U8 1473-1538); test: NMR chemical shift perturbation
[4] = target: T2, SUD-MC; test: NMR chemical shift perturbation; remark: listed apart in the source
[5] = target: T1, SUD-M; test: EMSA
[6] = target: T2, SUD-MC; test: EMSA
[7] = target: T1, SUD-M; test: EMSA; remark: listed apart in the source
[8] = target: T3, SUD-C; test: NMR chemical shift perturbation; remark: listed apart in the source
[9] = target: T2, SUD-MC; test: EMSA; remark: listed apart in the source
[10] = target: T3, SUD-C; test: EMSA
[11] = target: T1, SUD-M
[12] = target: T2, SUD-MC; test: NMR chemical shift perturbation; remark: listed apart in the source
[13] = target: T1, SUD-M; test: EMSA; remark: listed apart in the source
[14] = target: T2, SUD-MC; test: EMSA; remark: listed apart in the source

GGAGGAGGAGGA (ssRNA) [(GGA)4]
binding result [1]: binds
binding result [2]: binds

AAAAAAAAAA (ssRNA) [A10]
binding result [3]: binds
binding result [4]: binds

GGGAGGGAGG (ssRNA)
binding result [5]: binds
binding result [6]: binds

GGGAGGGA (ssRNA)
binding result [7]: binds

GGGGGGGGGG (ssRNA) [G10]
binding result [8]: binds

GGGAGGGAGGGAGGGAGGGA (ssRNA) [(GGGA)5]
binding result [5]: binds
binding result [9]: binds
binding result [10]: no binding

GUUCGUUUAG (ssRNA) [TRS(-)]
binding result [11]: no binding

CUAAACGAAC (ssRNA) [TRS(+)]
binding result [11]: no binding
binding result [12]: binds

ACUGACUGACUGACUGACUG (ssRNA) [(ACUG)5]
binding result [10]: no binding
binding result [13]: binds
binding result [14]: no binding

Reference: paper PMC2958096
